Here are results for 3 molecules from US7138497 (CHIRON, dated 2006).

Assay [1] concerns the target T1, c-erbB-2 (extract of SK-Br-3 breast cancer cells coated on the plate) (UniProt P04626 23-1255).
T1 construct: Crude detergent extract of the cells, not purified protein; also called c-erbB-2 antigen
As to the kind of experiment: competition ELISA, SK-Br-3 extract on plate, 520C9-HRP probe as competitor. The protocol:
In order to prepare c-erbB-2, SK-Br-3 breast cancer cells (Ring et al., 1989, Cancer Res. 49: 3070–3080), were harvested and resuspended in 10 mM NaCl, 0.5% Nonidet-P40, pH 8. Insoluble debris was removed by centrifugation and the extract filtered through 0.45 Millex HA and 0.2 Millex GV filters. 40µl of the extract was added to each well of a 96 well plate and incubated overnight at 37° C. The plates then were washed with PBS and non-specific binding sites blocked following the addition of PBS containing 1% skim milk by incubation for one hour at room temperature. The sFv and 520C9 Fab samples, diluted in PBS, were added to the wells and incubated for 30 mins at room temperature. A control containing only dilution buffer was also included.
In order to quantitate the reaction, 20µl of a 520C9-horseradish peroxidase (HRP) probe (Zymed Labs., South San Francisco, Calif.), diluted to 14 µl/ml in PBS containing 1% skim milk, was added to each well and incubated for one hour at room temperature. The plate was then washed four times with PBS, the peroxidase substrate added and incubated for 30 minutes at room temperature. The reaction was quenched with H_2SO_4 and the […] values measured.

The target of assay [2] is T2, c-erbB-2 extracellular domain (ECD) with His6 peptide, attached to agarose beads (UniProt P04626 23-652, limits assumed).
T2 construct: extracellular domain; Expressed in CHO cells, purified by IMAC, coupled to agarose beads
As to the kind of experiment: affinity chromatography on c-erbB-2 ECD-agarose, eluted with 5M LiCl. Here is the method: The (sFv')_2 heterodimers can be separated by a two step affinity chromatography procedure taking advantage of the bivalent nature of the dimer. For instance, during the purification of the 741F8/26-10 heterodimer the mixture initially was loaded onto an ouabain-Sepharose column, washed with a PBS, 1 M NaCl buffer, to remove any non-specifically adsorbed material, and rewashed with PBS to reduce the salt concentration. The reactive 26-10 sFv' species bound to the resin were eluted with 20 mM ouabain in PBS and the eluate dialyzed against PBS to remove the cardiac glycoside. The 741F8/26-10 heterodimers were then repurified on a c-erbB-2-agarose affinity column taking advantage of the ECD binding site in the heterodimer. […] Prior to use, the buffer was exchanged with PBS by dialysis.

Assay [3] has as its target T2, c-erbB-2 extracellular domain (ECD) …. As to the kind of experiment: affinity chromatography on c-erbB-2 ECD-agarose. The source says: The refolded 26-10 sFv' polypeptide chains were purified by ouabain-Sepharose affinity chromatography, as described for the 26-10 sFv constructs (Huston, et. al., 1988, *Proc. Natl Acad. Sci. USA* 85; 5879–5883 and Tai, et al., 1990, *Biochem.* 29, 8024–[…], both of which are hereby incorporated by reference). The refolded 520C9 sFv polypeptide chain was similarly purified using a c-erbB-2-agarose affinity column. […] The buffer was then exchanged by dialysis. The c-erbB-2 affinity column preferably was prepared by linking the extracellular domain of c-erbB-2 onto agarose beads.

B1: Fab fragment of the 520C9 monoclonal antibody (Fab, V domains shown)
VH: EIQLVQSGPELKKPGETVKISCKASGYTFANYGMNWMKQAPGKGLKWMGWINTYTGQSTYADDFKERFAFSLETSATTAHLQINNLRNEDSATYFCARRFGFAYWGQGTLVSVSA
VL: DIQMTQSPSSLSASLGERVSLTCRASQDIGNSLTWLQQEPDGTIKRLIYATSSLDSGVPKRFSGSRSGSDYSLTISSLESEDFVVYYCLQYAIFPYTFGGGTNLEIK
notes: Fab of the parental murine monoclonal antibody 520C9; The limits of VH (1-115) are derived from the printed linker position; also called 520C9 Fab; parental 520C9 Fab fragment
As to B1, the binding result in assay [1] is listed as “binds”.

B2: 741F8/26-10 (sFv')2 heterodimer (bispecific antibody)
scFv 1: MAEIQLVQSGPELKKPGETVKISCKASGYTFTNYGMNWVKQAPGKGLKWMGWINTNTGEPTYAEEFKGRFAFSLETSASTAYLQINNLKNEDTATYFCGRQFITYGGFANWGQGTLVTVSASSSSGSSSSGSSSSDIVMTQSPKFMSTSVGDRVSISCKASQDVSTAVAWYQQKPGQSPKLLIYWTSTRHTGVPDRFTGSGSGTDYTLTISSVQAEDLALHYCQQHYRVPYTFGGGTKLEIKRADGGGGC
scFv 2: MEVQLQQSGPELVKPGASVRMSCKSSGYIFTDFYMNWVRQSHGKSLDYIGYISPYSGVTGYNQKFKGKATLTVDKSSSTAYMELRSLTSEDSAVYYCAGSSGNKWAMDYWGHGASVTVSSSGSSSSGSSSSGSDVVMTQTPLSLPVSLGDQASISCRSSQSLVHSNGNTYLNWYLQKAGQSPKLLIYKVSNRFSGVPDRFSGSGSGTDFTLKISRVEAEDLGIYFCSQTTHVPPTFGGGTKLEIKRSGGGGC
modifications: C-terminal cysteine of the (Gly)4-Cys tail disulfide linked to the other chain
notes: Made by reacting 26-10 sFv'-TNB with reduced 741F8 sFv'; also called 741F8/26-10 heterodimer
Regarding B2, the binding result in assay [2] was “binds”.

B3: 520C9 sFv single-chain binding protein (scFv)
scFv: EIQLVQSGPELKKPGETVKISCKASGYTFANYGMNWMKQAPGKGLKWMGWINTYTGQSTYADDFKERFAFSLETSATTAHLQINNLRNEDSATYFCARRFGFAYWGQGTLVSVSASISSSSGSSSSGSSSSGSDIQMTQSPSSLSASLGERVSLTCRASQDIGNSLTWLQQEPDGTIKRLIYATSSLDSGVPKRFSGSRSGSDYSLTISSLESEDFVVYYCLQYAIFPYTFGGGTNLEIKRAD
notes: also called biosynthetic 520C9 sFv
On to B3, for which the binding result in assay [3] and in assay [1] was “binds” throughout.
